Where no end group is shown, it is not given here.
How the values were obtained:
[1] = target: T1, PSMA Fab; assay: clonal phage ELISA on biotinylated PSMA Fab captured on neutravidin plates, anti-M13 HRP detection, blocking buffer alone
T1 construct: also called Anti-PSMA Fab; 006 PSMA Fab
Description: (§1) Clonal phage were harvested as crude supernatants and screened via standard ELISAs. […] Prior to the addition of clonal phage. wells were incubated with blocking buffer and PSMA antigen or blocking buffer alone. Without washing or aspirating, clonal phage supernatants were then added to the wells and incubated for a short time. Wells were then washed followed by detection of bound phage using a horse radish conjugated anti-M13 antibody.

[2] = target: T1, PSMA Fab; assay: clonal phage ELISA on captured PSMA Fab pre-incubated with PSMA antigen as competitor, anti-M13 HRP detection;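 further: crude clonal phage supernatants tested by ELISA, wells first treated with blocking buffer plus PSMA antigen, bound phage read out via HRP-linked anti-M13 antibody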
Description: as §1

[3] = target: T2, 006 PSMA Fab (biotinylated (site not stated)); assay: clonal phage ELISA, biotinylated PSMA Fab on neutravidin plate, anti-M13 HRP detection, no PSMA antigen
T2 construct: Biotinylated PSMA Fab captured on neutravidin coated plates in the clonal phage ELISA; also called Anti-PSMA Fab; anti-PSMA Fab

[4] = target: T2, 006 PSMA Fab; assay: clonal phage ELISA, biotinylated PSMA Fab on neutravidin plate, anti-M13 HRP detection; competitor PSMA antigen
Description: as §1

[5] = target: T3, PSMA Fab (006 PSMA Fab); assay: clonal phage ELISA; biotinylated PSMA Fab on neutravidin plate pre-incubated with PSMA antigen as competitor; anti-M13 HRP detection;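 further: crude clonal phage supernatants briefly incubated on wells preloaded with PSMA antigen in blocking buffer, or buffer only as control, bound phage detected with HRP-conjugated anti-M13 antibody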
T3 construct: also called Anti-PSMA Fab; anti-PSMA Fab
Description: as §1

[6] = target: T3, PSMA Fab (006 PSMA Fab); assay: clonal phage ELISA; biotinylated PSMA Fab on neutravidin plate, blocking buffer alone; anti-M13 HRP detection;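 further: crude clonal phage supernatants added without washing to wells pretreated with blocking buffer with or without PSMA antigen, short incubation, then washed before detecting bound phage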
Description: as §1

B1: Phage-3144 (peptide)
peptide: HLPRCEPAWMCHGF
modifications: cysteine pairing not given here; also: fused to phage pIII, orientation and linker not given here
notes: Clonal phage of the Peptide-180 library, tested as crude supernatant; not shown: fused to pIII of the bacteriophage
- Phage binding ELISA signal, Anti-PSMA Fab [1]: 2.05
- phage binding ELISA signal (Anti-PSMA Fab, PSMA antigen present) [2]: 0.0904

B2: Phage-3127 (peptide)
peptide: LDKRCVPVWMCEGF
modifications: cysteine pairing not given here; also: fused to phage pIII, orientation and linker not given here
- phage binding ELISA signal [3]: 2.06
- phage binding ELISA signal with PSMA antigen present [4]: 0.0828

B3: Phage-3125 (peptide)
peptide: VNVKCVPSWMCSGF
modifications: cysteine pairing not given here; also: fused to phage pIII, orientation and linker not given here
- phage binding ELISA signal [3]: 2.07
- phage binding ELISA signal with PSMA antigen present [4]: 0.0739

B4: Phage-3132 (peptide)
peptide: THIICKPAWMCDAW
modifications: cysteine pairing not given here; also: fused to phage pIII, orientation and linker not given here
- Phage binding ELISA signal, Anti-PSMA Fab in presence of PSMA [5]: 0.0691
- Phage binding ELISA signal, Anti-PSMA Fab [6]: 2.06

B5: Phage-3135 (peptide)
peptide: HQLMCRPAWMCEGF
modifications: cysteine pairing not given here; also: fused to phage pIII, orientation and linker not given here
- Phage binding ELISA signal, Anti-PSMA Fab in presence of PSMA [5]: 0.118
- Phage binding ELISA signal, Anti-PSMA Fab [6]: 2.06

B6: Phage-3136 (peptide)
peptide: VVQICKPSWMCEGF
modifications: cysteine pairing not given here; also: fused to phage pIII, orientation and linker not given here
- Phage binding ELISA signal, Anti-PSMA Fab in presence of PSMA [5]: 0.102
- Phage binding ELISA signal, Anti-PSMA Fab [6]: 2.06

B7: Phage-3138 (peptide)
peptide: DTRICKPEWMCMGM
modifications: cysteine pairing not given here; also: fused to phage pIII, orientation and linker not given here
- Phage binding ELISA signal, Anti-PSMA Fab in presence of PSMA [5]: 0.107
- Phage binding ELISA signal, Anti-PSMA Fab [6]: 2.06

B8: Phage-3130 (peptide)
peptide: SVGYCVPSWMCSGF
modifications: cysteine pairing not given here; also: fused to phage pIII, orientation and linker not given here
- Phage binding ELISA signal, Anti-PSMA Fab in presence of PSMA [5]: 0.075
- Phage binding ELISA signal, Anti-PSMA Fab [6]: 2.06

B9: Phage-3143 (peptide)
peptide: SVPLCIPEWMCVGF
modifications: cysteine pairing not given here; also: fused to phage pIII, orientation and linker not given here
notes: as for B1
- Phage binding ELISA signal, Anti-PSMA Fab [1]: 2.05
- phage binding ELISA signal (Anti-PSMA Fab, PSMA antigen present) [2]: 0.106

B10: Phage-3149 (peptide)
peptide: LLPACKPTWMCTGL
modifications: cysteine pairing not given here; also: fused to phage pIII, orientation and linker not given here
notes: as for B1
- Phage binding ELISA signal, Anti-PSMA Fab [1]: 2.04
- phage binding ELISA signal (Anti-PSMA Fab, PSMA antigen present) [2]: 0.135

B11: Phage-3148 (peptide)
peptide: AEYMCIPSWMCHGM
modifications: cysteine pairing not given here; also: fused to phage pIII, orientation and linker not given here
notes: as for B1
- Phage binding ELISA signal, Anti-PSMA Fab [1]: 2.05
- phage binding ELISA signal (Anti-PSMA Fab, PSMA antigen present) [2]: 0.0861

B12: Phage-3137 (peptide)
peptide: IVPKCQPSWMCFGF
modifications: cysteine pairing not given here; also: fused to phage pIII, orientation and linker not given here
- Phage binding ELISA signal, Anti-PSMA Fab in presence of PSMA [5]: 0.0991
- Phage binding ELISA signal, Anti-PSMA Fab [6]: 2.06

B13: Phage-3129 (peptide)
peptide: GHQMCVPQWMCDAF
modifications: cysteine pairing not given here; also: fused to phage pIII, orientation and linker not given here
- Phage binding ELISA signal, Anti-PSMA Fab in presence of PSMA [5]: 0.0607
- Phage binding ELISA signal, Anti-PSMA Fab [6]: 2.06

B14: Phage-3140 (peptide)
peptide: IDTICRPSWMCLGF
modifications: cysteine pairing not given here; also: fused to phage pIII, orientation and linker not given here
- Phage binding ELISA signal, Anti-PSMA Fab in presence of PSMA [5]: 0.0788
- Phage binding ELISA signal, Anti-PSMA Fab [6]: 2.05

B15: Phage-3150 (peptide)
peptide: DAPLCKPQWMCSGF
modifications: cysteine pairing not given here; also: fused to phage pIII, orientation and linker not given here
notes: as for B1
- Phage binding ELISA signal, Anti-PSMA Fab [1]: 2.04
- phage binding ELISA signal (Anti-PSMA Fab, PSMA antigen present) [2]: 0.0854

B16: Phage-3146 (peptide)
peptide: GPIMCQPRWMCEGF
modifications: cysteine pairing not given here; also: fused to phage pIII, orientation and linker not given here
notes: as for B1
- Phage binding ELISA signal, Anti-PSMA Fab [1]: 2.05
- phage binding ELISA signal (Anti-PSMA Fab, PSMA antigen present) [2]: 0.0807

B17: Phage-3126 (peptide)
peptide: FEILCRPLWMCSGF
modifications: cysteine pairing not given here; also: fused to phage pIII, orientation and linker not given here
- phage binding ELISA signal [3]: 2.06
- phage binding ELISA signal with PSMA antigen present [4]: 0.111

B18: Phage-3141 (peptide)
peptide: YERVCEPLWMCTGF
modifications: cysteine pairing not given here; also: fused to phage pIII, orientation and linker not given here
- Phage binding ELISA signal, Anti-PSMA Fab in presence of PSMA [5]: 0.0802
- Phage binding ELISA signal, Anti-PSMA Fab [6]: 2.05

B19: Phage-3139 (peptide)
peptide: TAPVCVPWWMCEGF
modifications: cysteine pairing not given here; also: fused to phage pIII, orientation and linker not given here
- Phage binding ELISA signal, Anti-PSMA Fab in presence of PSMA [5]: 0.0757
- Phage binding ELISA signal, Anti-PSMA Fab [6]: 2.05

B20: Phage-3131 (peptide)
peptide: DAVRCVPSWMCEGF
modifications: cysteine pairing not given here; also: fused to phage pIII, orientation and linker not given here
- Phage binding ELISA signal, Anti-PSMA Fab in presence of PSMA [5]: 0.1
- Phage binding ELISA signal, Anti-PSMA Fab [6]: 2.06

B21: Phage-3124 (peptide)
peptide: SMHWCEPMWMCAGF
modifications: cysteine pairing not given here; also: fused to phage pIII, orientation and linker not given here
- phage binding ELISA signal [3]: 2.07
- phage binding ELISA signal with PSMA antigen present [4]: 0.0809

B22: Phage-3133 (peptide)
peptide: YERSCVPSWMCEGF
modifications: cysteine pairing not given here; also: fused to phage pIII, orientation and linker not given here
- Phage binding ELISA signal, Anti-PSMA Fab in presence of PSMA [5]: 0.066
- Phage binding ELISA signal, Anti-PSMA Fab [6]: 2.06

B23: Phage-3134 (peptide)
peptide: AERLCVPAWMCLNL
modifications: cysteine pairing not given here; also: fused to phage pIII, orientation and linker not given here
- Phage binding ELISA signal, Anti-PSMA Fab in presence of PSMA [5]: 0.0543
- Phage binding ELISA signal, Anti-PSMA Fab [6]: 2.06

B24: Phage-3128 (peptide)
peptide: LELACKPEWMCVGF
modifications: cysteine pairing not given here; also: fused to phage pIII, orientation and linker not given here
- phage binding ELISA signal [3]: 2.06
- phage binding ELISA signal with PSMA antigen present [4]: 0.0801

B25: Phage-3147 (peptide)
peptide: FEMFCIPAWMCSGL
modifications: cysteine pairing not given here; also: fused to phage pIII, orientation and linker not given here
notes: as for B1
- Phage binding ELISA signal, Anti-PSMA Fab [1]: 2.05
- phage binding ELISA signal (Anti-PSMA Fab, PSMA antigen present) [2]: 0.0821

B26: Phage-3142 (peptide)
peptide: AGVYCTPMWMCTGF
modifications: cysteine pairing not given here; also: fused to phage pIII, orientation and linker not given here
- Phage binding ELISA signal, Anti-PSMA Fab in presence of PSMA [5]: 0.0775
- Phage binding ELISA signal, Anti-PSMA Fab [6]: 2.05

B27: Phage-3145 (peptide)
peptide: IERSCTPSWMCHGF
modifications: cysteine pairing not given here; also: fused to phage pIII, orientation and linker not given here
notes: as for B1
- Phage binding ELISA signal, Anti-PSMA Fab [1]: 2.05
- phage binding ELISA signal (Anti-PSMA Fab, PSMA antigen present) [2]: 0.072
